Drawing on PMC8257627, this text covers K half, S1/2 and Kd for seven molecules.

One data set concerns AF10PZP WT (mouse). Description: fluorescence polarization. The note with it: S1/2, FP: 25 mM Tris-HCl pH 7.5, 75 mM NaCl, 0.00625% Tween20, 5 mM DTT, 5 nM NCP, NCP EMSA: 25 mM Tris pH 7.5, 75 mM NaCl, 10% glycerol, 0.005% Tween 20, 4 C, DNA …. In general terms: Polarisation of emitted light reports the rotation of a fluorescent probe.
Data set [1] deals with nucleosome core particle reconstituted with 207 bp DNA (NCP207) (human) (UniProt P0C0S8). Description: fluorescence polarisation; 5 nM fluorescein-labelled NCP with increasing AF10PZP WT or mutants; 75 mM NaCl, 25 mM Tris-HCl pH 7.5, 0.00625% Tween20, 5 mM DTT; fit to a binding isotherm, S1/2.
The target of data set [2] is nucleosome reconstituted with 147 bp 601 DNA (NCP147) (human) (UniProt P0C0S8). The description is as above.
Another data set has as its system AF10PZP D43K (mouse). Description: fluorescence polarization. The conditions noted are these: 75 mM NaCl; S1/2; FP: 25 mM Tris-HCl pH 7.5, 75 mM NaCl, 0.00625% Tween20, 5 mM DTT, 5 nM NCP; NCP EMSA: 25 mM Tris pH 7.5, 75 mM NaCl, 10% glycerol, 0.005% Tween 20, 4 C; DNA ….
A further data set deals with AF10PZP E179K (mouse). Put plainly: fluorescence polarization. The note with it: 75 mM NaCl; S1/2; FP: 25 mM Tris-HCl pH 7.5, 75 mM NaCl, 0.00625% Tween20, 5 mM DTT, 5 nM NCP; NCP EMSA: 25 mM Tris pH 7.5, 75 mM NaCl, 10% glycerol, 0.005% Tween 20, 4 C; DNA ….
Data set [3] addresses nucleosome core particle reconstituted with 207 bp DNA (NCP207), P0C0S8;P62807;Q71DI3;P62805. Put plainly: fluorescence anisotropy. The note with it: chain shown with the change.

Regarding 207 bp 601 DNA, the K half with AF10PZP WT (mouse) turned out to be 8 µM.
Regarding NCP147, the K half with AF10PZP WT (mouse) (75 mM NaCl) came out at 15 µM.
Turning to “PZP domain of AF10 (AF10PZP, aa 19–208), wild type (from UniProt O54826 19-208) (domain or fragment)”, the S1/2 is 6 µM in data set [1] and 15 µM in data set [2].
With NCP207, the results for the K half in the data set with AF10PZP WT (mouse) (75 mM NaCl), in the data set on AF10PZP D43K (mouse) and in the data set with AF10PZP E179K (mouse) were 6 µM, 9 µM and 14 µM, respectively.
“AF10PZP E179K mutant (aa 19–208) (from UniProt O54826 19-208) (domain or fragment)” displayed an S1/2 in data set [1] of 14 µM.
Same read-out and setting: in the case of “AF10PZP D43K mutant (aa 19–208) (from UniProt O54826 19-208) (domain or fragment)” it was 9 µM.

B1: PZP domain of AF10 (AF10PZP, aa 19–208), wild type, O54826 D43K (protein)
chain: KEMIGGCCVCSDERGWAENPLVYCKGHGCSVAVHQACYGIVQVPTGPWFCRKCESQERAARVRCELCPHKDGALKRTDNGGWAHVVCALYIPEVQFANVSTMEPIVLQSVPHDRYNKTCYICDEQGRESKAATGACMTCNKHGCRQAFHVTCAQFAGLLCEEEGNGADNVQYCGYCKYHFSKLKKSKRGS
Take B1: the dissociation constant (Kd) in data set [3] was 9 µM. This counts as single-digit micromolar.

In general, Kd refers to the concentration at which binding is half-saturated. A low value points to a tighter complex.
